Substrate in series [1]: O=[N+]([O-])c1ccc(O[C@@H]2OC[C@@H](O[C@@H]3OC[C@@H](O)[C@H](O)[C@H]3O)[C@H](O)[C@H]2O)cc1
The series can be described thus: purified protein. The format is biochemical, Acetivibrio clariflavus. The note with it: 50 mM sodium phosphate buffer, pH 6, 40 °C, 0.05–1 mM substrate.

Substrate in series [2]: O=[N+]([O-])c1ccc(O[C@@H]2OC[C@@H](O[C@@H]3OC[C@@H](O[C@@H]4OC[C@@H](O)[C@H](O)[C@H]4O)[C@H](O)[C@H]3O)[C@H](O)[C@H]2O)cc1
The experiment in a line: purified protein. In kind it is biochemical, Acetivibrio clariflavus. Conditions: 50 mM sodium phosphate buffer, pH 6, 40 °C, 0.05–1 mM substrate.

B1: AcXyn30B (Acetivibrio clariflavus DSM 19732) (protein)
chain: SYTASVDVNTTYQTLEGFGAAIAWYNDYLTTHPNKNDLYRILFYDSGLDILRLRNQYRNSNNFGYDDMEIVKYGKIMNPNLKVLLSSWSPPSDLKRNGVMNGGTLAKENGSFVYEKFADYWYNSLVAYRAKGIIPDYISIQNEPEYESGDWETCIFRETETSEYPSYAKALDAVYEKIKDLPDMPKILGVESAGIMNNTVQNYARYMDLSKVYGIAHHLYNGGDPYNPDSFNDIFRSLARDFADKPLFMTEYDYGTPFTTAELIHNSLVVEGVSGYFYWDLIWENSQRPLVAIEVPRNPEQWTTKEGYIISDFYYIMQQFAKFTDPGYKRVDASVSSNDIKVSAFVSPDKSKLTMIFINKGYSEHSVALDLKGYSSNKSIIYRTLPEGNERFKKVGSLFGNTVTLPARSVVTVALGVDDEEQIPPQLPTPTPKPESRSAYDIIQAEDYNEMYGIQCETIADDGNKNVAYIENGDYILFKGVDFGTGATGFEASVASAESGGAIEIRLDELYGTTVVKIPVSGTGDWHNYVTVKADIPEIKGKHDLYLVFTGGGGYLFNIDWFVFTGGTVENPVPEVIYGDVNGDGDFNSIDYGYLKMYLLGQIKEFPSKDGMIAADVNGDGTVNSIDYAYMKMRLLGQISKFPVE
notes: purchased from NZYTech (CZ0917); full-length 673 aa: signal peptide 28 aa, GH30 29-446, CBM6 469-593, dockerin 602-673
For the protein B1, in the series “purified protein [1]”, the Michaelis-Menten constant (Km) was 210 µM, the kcat was 7.4 s⁻¹ and the kcat/Km worked out at 34900 M⁻¹ s⁻¹. Also, in “purified protein [2]”, the Km is 230 µM, the kcat worked out at 10.4 s⁻¹ and the kcat/Km was determined as 56100 M⁻¹ s⁻¹.

The term Km denotes the concentration of substrate that gives half-maximal velocity. By kcat is commonly meant the maximal rate divided by the concentration of active sites. Broadly, the kcat/Km is the second-order rate constant that governs catalysis at low substrate concentration.

The record behind these values is article PMC11058611, “Characterization of a novel GH30 non-specific endoxylanase AcXyn30B from Acetivibrio clariflavus” (Applied Microbiology and Biotechnology, 2024).
